Here are results for one substance from ChEMBL document CHEMBL1145329, “Novel methylenephosphophosphonate analogues of mycophenolic adenine dinucleotide. Inhibition of inosine monophosphate dehydrogenase” (J Med Chem, 2006).

The series deals with NC(=O)c1ccc[n+]([C@@H]2O[C@H](COP(=O)([O-])OP(=O)(O)OC[C@H]3O[C@@H](n4cnc5c(N)ncnc54)[C@H](O)[C@@H]3O)[C@@H](O)[C@H]2O)c1. Briefly: Inhibition of human IMPDH. It counts as protein assay.

As to “Inosine-5'-monophosphate dehydrogenase (IMPDH) (Homo sapiens) (from UniProt P20839+P12268)”, the Km (as a rule, the concentration of substrate that gives half-maximal velocity) is 100 µM.
